Measured values from article PMC3393671, “A Toxoplasma gondii Pseudokinase Inhibits Host IRG Resistance Proteins” (PLoS Biology, 2012).

Target: T1, Irga6 (GST tag cleaved off) (mouse, UniProt Q9QZ85 1-411)
T1 construct: Irga6, mouse IRG protein, cleaved from the GST fusion as a near-native protein; Lacks the N-terminal myristoylation; In one NMR experiment [13C]-Met labelled; also called wt Irga6; purified Irga6; source: E. coli BL21 (pGEX-4T-2), purified (Glutathione Sepharose, thrombin cleavage, Superdex 75); not shown: GST, N-terminal, cleaved
T1 sequence: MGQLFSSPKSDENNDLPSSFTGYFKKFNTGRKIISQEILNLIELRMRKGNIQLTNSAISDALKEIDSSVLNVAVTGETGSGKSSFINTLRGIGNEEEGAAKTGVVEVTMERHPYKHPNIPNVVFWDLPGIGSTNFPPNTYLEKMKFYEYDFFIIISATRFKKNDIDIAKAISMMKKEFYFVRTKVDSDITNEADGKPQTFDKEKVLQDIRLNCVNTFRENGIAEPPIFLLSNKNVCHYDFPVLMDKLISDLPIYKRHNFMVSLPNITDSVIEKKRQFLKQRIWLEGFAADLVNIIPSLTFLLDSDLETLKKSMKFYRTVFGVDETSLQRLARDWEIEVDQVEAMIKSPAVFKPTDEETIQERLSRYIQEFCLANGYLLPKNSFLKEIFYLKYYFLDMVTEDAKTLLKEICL
Assay: NMR titration; 13C-1H HSQC of [13C]-Met labelled ROP5BI without or with unlabeled Irga6; 30°C, 800 MHz
Settings: both partners purified

B1: ROP5BI pseudokinase domain (domain or fragment, Toxoplasma gondii (type I))
chain: EAGDSFMRDLLKREEELIGYCREEALKEPAAMVEAVTATVWPQNAETTVDSLLSQGERKLKLVEPLRVGDRSVVFLVRDVERLEDFALKVFTMGAENSRSELERLHEATFAAARLLGESPEEARDRRRLLLPSDAVAVQSQPPFAQLSPGQDDYAVANYLLLMPAASVDLELLFSTLDFVYVFRGDEGILALHILTAQLIRLAANLQSKGLVHGHFTPDNLFIMPDGRLMLGDVSALWKVGTRGPASSVPVTYAPREFLNASTATFTHALNAWQLGLSIYRVWCLFLPFGLVTPGIKGSWKRPSLRVPGTDSLAFGSCTPLPDFVKTLIGRFLNFDRRRRLLPLEAMETPEFLQLQNEISSSLSTGQ
notes: pseudokinase domain of ROP5 isoform B of a type I T. gondii strain (ROP5BI); In one NMR experiment [13C]-labelled on the Cε of methionines; also called purified pseudokinase domain protein ROP5BI; source: purified
- binding result: binds
